# Data from patent publication US20200055920A1 (published 2020).
# Substitutions are numbered along the chain they refer to. Like-named read-outs stand apart in the source and are kept apart here.
# B1: single-arm BMPRII-Fc heterodimeric complex (Fc fusion)
# chain 1: SQNQERLCAFKDPYQQDLGIGESRISHENGTILCSKGSTCYGLWEKSKGDINLVKQGCWSHIGDPQECHYEECVVTTTPPSIQNGTYRFCCCSTDLCNVNFTENFPPPDTTPLSPPHSFNRDETGGGTHTCPPCPAPELLGGPSVFLFPPKPKDTLMISRTPEVTCVVVDVSHEDPEVKFNWYVDGVEVHNAKTKPREEQYNSTYRVVSVLTVLHQDWLNGKEYKCKVSNKALPAPIEKTISKAKGQPREPQVYTLPPSRKEMTKNQVSLTCLVKGFYPSDIAVEWESNGQPENNYKTTPPVLKSDGSFFLYSKLTVDKSRWQQGNVFSCSVMHEALHNHYTQKSLSLSPGK
# chain 2: SNTKVDKRVTGGGTHTCPPCPAPELLGGPSVFLFPPKPKDTLMISRTPEVTCVVVDVSHEDPEVKFNWYVDGVEVHNAKTKPREEQYNSTYRVVSVLTVLHQDWLNGKEYKCKVSNKALPAPIEKTISKAKGQPREPQVYTLPPSREEMTKNQVSLTCLVKGFYPSDIAVEWESNGQPENNYDTTPPVLDSDGSFFLYSDLTVDKSRWQQGNVFSCSVMHEALHNHYTQKSLSLSPGK
# notes: also called BMPRII-Fc:Fc heterodimer
# B2: single-arm TGFβRII-Fc heterodimeric complex (Fc fusion)
# chain 1: TIPPHVQKSVNNDMIVTDNNGAVKFPQLCKFCDVRFSTCDNQKSCMSNCSITSICEKPQEVCVAVWRKNDENITLETVCHDPKLPYHDFILEDAASPKCIMKEKKKPGETFFMCSCSSDECNDNIIFSEEYNTSNPDTGGGTHTCPPCPAPELLGGPSVFLFPPKPKDTLMISRTPEVTCVVVDVSHEDPEVKFNWYVDGVEVHNAKTKPREEQYNSTYRVVSVLTVLHQDWLNGKEYKCKVSNKALPAPIEKTISKAKGQPREPQVYTLPPSRKEMTKNQVSLTCLVKGFYPSDIAVEWESNGQPENNYKTTPPVLKSDGSFFLYSKLTVDKSRWQQGNVFSCSVMHEALHNHYTQKSLSLSPGK
# chain 2: B1 chain 2
# notes: also called TGFβRII-Fc:Fc heterodimer
# B3: single-arm ALK3-Fc heterodimeric complex (Fc fusion)
# chain 1: GAQNLDSMLHGTGMKSDSDQKKSENGVTLAPEDTLPFLKCYCSGHCPDDAINNTCITNGHCFAIIEEDDQGETTLASGCMKYEGSDFQCKDSPKAQLRRTIECCRTNLCNQYLQPTLPPVVIGPFFDGSIRTGGGTHTCPPCPAPELLGGPSVFLFPPKPKDTLMISRTPEVTCVVVDVSHEDPEVKFNWYVDGVEVHNAKTKPREEQYNSTYRVVSVLTVLHQDWLNGKEYKCKVSNKALPAPIEKTISKAKGQPREPQVYTLPPSREEMTKNQVSLTCLVKGFYPSDIAVEWESNGQPENNYDTTPPVLDSDGSFFLYSDLTVDKSRWQQGNVFSCSVMHEALHNHYTQKSLSLSPG
# chain 2: B1 chain 2 with E147K, D183K, D190K, D200K
# notes: also called ALK3-Fc:Fc heterodimer
# What was measured:
# Assay in all cases: Biacore SPR; receptor-Fc captured by anti-Fc antibody, ligand injected
# [1] = molecular target: T1, BMP6 (UniProt P22004 382-513, limits assumed)
# T1 sequence (looked up): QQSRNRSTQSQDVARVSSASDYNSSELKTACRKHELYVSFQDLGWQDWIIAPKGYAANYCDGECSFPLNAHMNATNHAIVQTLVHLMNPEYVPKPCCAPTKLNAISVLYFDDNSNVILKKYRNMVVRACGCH
# Experimental: (§1) A Biacore™-based binding assay was used to compare ligand binding selectivity of the single-arm BMPRII-Fc heterodimeric complex described above with that of an BMPRII-Fc homodimeric complex. The single-arm BMPRII-Fc and homodimeric BMPRII-Fc were independently captured onto the system using an anti-Fc antibody. Ligands were injected and allowed to flow over the captured receptor protein.
# [2] = molecular target: T2, GDF7 (UniProt Q7Z4P5 322-450, limits assumed)
# T2 construct: also called BMP12
# T2 sequence (looked up): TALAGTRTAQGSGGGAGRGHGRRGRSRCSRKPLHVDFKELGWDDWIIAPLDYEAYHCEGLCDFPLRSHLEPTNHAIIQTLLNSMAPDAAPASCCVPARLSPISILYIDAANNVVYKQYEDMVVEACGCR
# Experimental: as §1
# [3] = molecular target: T3, BMP4 (UniProt P12644 293-408)
# T3 sequence (looked up): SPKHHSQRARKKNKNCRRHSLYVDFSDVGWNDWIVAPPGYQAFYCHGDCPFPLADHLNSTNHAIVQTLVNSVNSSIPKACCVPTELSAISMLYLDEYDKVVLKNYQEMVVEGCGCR
# Experimental: as §1
# [4] = molecular target: T4, BMP2 (UniProt P12643 283-396)
# T4 sequence (P12643 283-396 limits assumed): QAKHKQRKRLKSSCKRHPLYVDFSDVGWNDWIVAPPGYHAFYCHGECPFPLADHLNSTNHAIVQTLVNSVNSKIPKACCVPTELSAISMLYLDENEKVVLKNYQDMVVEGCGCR
# Experimental: as §1
# [5] = molecular target: T5, BMP5 (UniProt P22003 317-454, limits assumed)
# T5 sequence (looked up): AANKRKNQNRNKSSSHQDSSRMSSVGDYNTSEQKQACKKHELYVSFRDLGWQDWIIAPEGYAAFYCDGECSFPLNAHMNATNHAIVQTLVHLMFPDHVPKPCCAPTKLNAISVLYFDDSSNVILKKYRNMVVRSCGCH
# Experimental: as §1
# [6] = molecular target: T6, BMP15 (UniProt O95972 268-392)
# T6 construct: also called GDF9b
# T6 sequence (looked up): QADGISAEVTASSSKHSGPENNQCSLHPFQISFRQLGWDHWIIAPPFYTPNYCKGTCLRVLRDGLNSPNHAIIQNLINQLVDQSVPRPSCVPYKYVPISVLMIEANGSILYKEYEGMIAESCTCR
# Experimental: as §1
# [7] = molecular target: T7, BMP7 (UniProt P18075 293-431)
# T7 construct: also called osteogenic protein-1; OP-1
# T7 sequence (looked up): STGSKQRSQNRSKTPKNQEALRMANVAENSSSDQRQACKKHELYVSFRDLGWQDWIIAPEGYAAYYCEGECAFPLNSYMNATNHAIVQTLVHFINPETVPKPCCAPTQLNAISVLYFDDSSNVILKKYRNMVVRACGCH
# Experimental: as §1
# [8] = molecular target: T8, BMP10 (UniProt O95393 317-424)
# T8 sequence (looked up): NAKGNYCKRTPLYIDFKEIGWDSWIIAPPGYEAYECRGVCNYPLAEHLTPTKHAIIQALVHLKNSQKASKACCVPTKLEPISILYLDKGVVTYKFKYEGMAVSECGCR
# Experimental: as §1
# [9] = molecular target: T9, TGFβ2 (UniProt P61812 303-414)
# T9 construct: also called TGF-beta2
# T9 sequence (looked up): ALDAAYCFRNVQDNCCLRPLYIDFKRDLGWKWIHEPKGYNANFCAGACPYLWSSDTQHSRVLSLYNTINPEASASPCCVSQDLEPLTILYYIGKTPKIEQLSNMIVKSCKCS
# Experimental: (§2) Ligands were injected and allowed to flow over the captured receptor protein.
# [10] = molecular target: T10, TGFβ3 (UniProt P10600 301-412)
# T10 construct: also called TGF-beta3
# T10 sequence (looked up): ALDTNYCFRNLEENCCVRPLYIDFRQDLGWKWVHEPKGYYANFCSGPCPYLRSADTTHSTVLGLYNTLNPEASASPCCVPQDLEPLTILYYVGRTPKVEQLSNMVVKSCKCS
# Experimental: as §2
# [11] = molecular target: T11, TGFβ1 (UniProt P01137 279-390)
# T11 construct: also called TGF-beta1
# T11 sequence (P01137 279-390 limits assumed): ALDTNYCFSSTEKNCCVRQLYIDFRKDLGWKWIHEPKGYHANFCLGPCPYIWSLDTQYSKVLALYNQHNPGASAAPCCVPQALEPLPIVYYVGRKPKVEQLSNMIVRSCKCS
# Experimental: as §2
# [12] = molecular target: T1, BMP6; remark: listed apart in the source
# Experimental: as §2
# [13] = molecular target: T12, Activin B (UniProt P09529 293-407)
# T12 construct: also called βBβB
# T12 sequence (looked up): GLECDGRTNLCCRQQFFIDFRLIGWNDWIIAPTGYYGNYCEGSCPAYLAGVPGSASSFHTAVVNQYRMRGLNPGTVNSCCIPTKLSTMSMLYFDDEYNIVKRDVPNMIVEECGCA
# Experimental: as §2
# [14] = molecular target: T2, GDF7; remark: listed apart in the source
# Experimental: as §2
# [15] = molecular target: T13, GDF8 (UniProt O14793 267-375)
# T13 construct: also called myostatin; growth and differentiation factor-8
# T13 sequence (looked up): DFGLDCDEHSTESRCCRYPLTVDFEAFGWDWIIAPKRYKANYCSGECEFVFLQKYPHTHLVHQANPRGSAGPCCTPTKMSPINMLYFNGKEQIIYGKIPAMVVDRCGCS
# Experimental: as §2
# [16] = molecular target: T3, BMP4; remark: listed apart in the source
# Experimental: as §2
# [17] = molecular target: T14, GDF5 (UniProt P43026 382-501, limits assumed)
# T14 construct: also called BMP14
# T14 sequence (looked up): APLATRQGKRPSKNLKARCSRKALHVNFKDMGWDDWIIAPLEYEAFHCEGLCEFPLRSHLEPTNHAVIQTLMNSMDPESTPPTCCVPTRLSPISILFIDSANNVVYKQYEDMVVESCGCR
# Experimental: as §2
# [18] = molecular target: T4, BMP2; remark: listed apart in the source
# Experimental: as §2
# [19] = molecular target: T5, BMP5; remark: listed apart in the source
# Experimental: as §2
# [20] = molecular target: T15, Activin A (UniProt P08476 311-426)
# T15 construct: also called βAβA
# T15 sequence (looked up): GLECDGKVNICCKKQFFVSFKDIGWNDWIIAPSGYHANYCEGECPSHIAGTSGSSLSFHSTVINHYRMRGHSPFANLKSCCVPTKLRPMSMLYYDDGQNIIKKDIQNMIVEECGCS
# Experimental: as §2
# [21] = molecular target: T16, GDF11 (UniProt O95390 299-407)
# T16 construct: also called BMP11
# T16 sequence (looked up): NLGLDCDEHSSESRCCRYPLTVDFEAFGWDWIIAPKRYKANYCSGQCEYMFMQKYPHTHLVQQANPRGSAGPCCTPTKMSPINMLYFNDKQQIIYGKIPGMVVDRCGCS
# Experimental: as §2
# [22] = molecular target: T7, BMP7; remark: listed apart in the source
# Experimental: as §2
# [23] = molecular target: T17, Activin AC (UniProt P08476 311-426; P55103 237-352)
# T17 sequence (looked up) 1: T15 sequence (looked up)
# T17 sequence (looked up) 2: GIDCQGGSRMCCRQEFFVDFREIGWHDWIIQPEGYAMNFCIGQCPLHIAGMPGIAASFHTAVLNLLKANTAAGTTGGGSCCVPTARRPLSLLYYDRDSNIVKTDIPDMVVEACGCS
# Experimental: as §2
# [24] = molecular target: T18, GDF6 (UniProt Q6KF10 336-455, limits assumed)
# T18 construct: also called BMP13
# T18 sequence (looked up): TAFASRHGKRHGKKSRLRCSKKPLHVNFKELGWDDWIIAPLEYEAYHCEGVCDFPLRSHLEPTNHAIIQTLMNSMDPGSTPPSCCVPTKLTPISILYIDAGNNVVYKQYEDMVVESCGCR
# Experimental: as §2
# [25] = molecular target: T19, Activin AB (UniProt P08476 311-426; P09529 293-407)
# T19 construct: also called βAβB
# T19 sequence (looked up) 1: T15 sequence (looked up)
# T19 sequence (looked up) 2: T12 sequence (looked up)
# Experimental: as §2
# [26] = molecular target: T8, BMP10; remark: listed apart in the source
# Experimental: as §2
binder,measurement,setting,value
B1,binding result,[1],no binding
same,Kd,[2],> 190000 pM
same,binding result,[3],no binding
same,binding result,[4],no binding
same,Kd,[5],36000 pM
same,koff,[5],0.015 s⁻¹
same,kon,[5],410000 M⁻¹ s⁻¹
same,Kd,[6],940 pM
same,koff,[6],0.067 s⁻¹
same,kon,[6],7.1e+07 M⁻¹ s⁻¹
same,binding result,[7],no binding
same,Kd,[8],430 pM
same,koff,[8],0.0091 s⁻¹
same,kon,[8],2.1e+07 M⁻¹ s⁻¹
B2,Kd,[9],> 61000 pM
same,Kd,[10],73 pM
same,koff,[10],0.0099 s⁻¹
same,kon,[10],1.4e+08 M⁻¹ s⁻¹
same,Kd,[11],31 pM
same,koff,[11],0.0047 s⁻¹
same,kon,[11],1.5e+08 M⁻¹ s⁻¹
B3,binding result,[12],no binding
same,binding result,[13],no binding
same,Kd,[14],22000 pM
same,koff,[14],0.01 s⁻¹
same,kon,[14],460000 M⁻¹ s⁻¹
same,binding result,[15],no binding
same,Kd,[16],93 pM
same,koff,[16],4.6e-05 s⁻¹
same,kon,[16],490000 M⁻¹ s⁻¹
same,binding result,[17],no binding
same,Kd,[18],310 pM
same,koff,[18],0.00025 s⁻¹
same,kon,[18],790000 M⁻¹ s⁻¹
same,Kd,[19],45000 pM
same,koff,[19],0.0053 s⁻¹
same,kon,[19],120000 M⁻¹ s⁻¹
same,binding result,[20],no binding
same,binding result,[21],no binding
same,binding result,[22],no binding
same,binding result,[23],no binding
same,binding result,[24],no binding
same,binding result,[25],no binding
same,binding result,[26],no binding
